Consider one substance from PMC7337897.

This assay concerns the target E2F1 (UniProt Q01094). The assay can be described thus: proximity ligation; in situ PLA in fixed, permeabilised H1299 cells, under normal (EV) and GAr-induced mRNA translation stress conditions; Duolink PLA kit; the antibodies of the protein-protein PLA are not told.
Chain of UniProt Q01094 (Q01094 whole entry): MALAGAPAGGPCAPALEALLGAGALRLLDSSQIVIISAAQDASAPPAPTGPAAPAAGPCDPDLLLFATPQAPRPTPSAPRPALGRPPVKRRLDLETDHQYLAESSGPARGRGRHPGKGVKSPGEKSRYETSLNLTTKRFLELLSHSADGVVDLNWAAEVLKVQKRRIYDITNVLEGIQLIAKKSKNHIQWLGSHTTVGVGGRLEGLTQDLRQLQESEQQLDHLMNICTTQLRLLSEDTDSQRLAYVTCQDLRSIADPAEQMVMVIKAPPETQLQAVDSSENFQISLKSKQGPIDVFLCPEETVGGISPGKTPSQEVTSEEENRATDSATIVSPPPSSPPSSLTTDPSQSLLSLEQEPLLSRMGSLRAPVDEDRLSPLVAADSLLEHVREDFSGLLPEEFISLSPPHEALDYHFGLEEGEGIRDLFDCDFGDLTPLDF

“MDM2 (from UniProt Q00987 1-491) (natural protein)” displayed a PLA interactions per cell (interactions per cell) of 20.
